B1: KRT18 (parent)
chain: PQVRDWSHYFKIIEDLRAQIFANT
B2: RSPH3 (parent)
chain: QRLEEQERRHREEKERRKKQQWEI

Variants of: B1
Experiment: protein stability index of a GFP-peptide fusion (GPS, HEK-293T) (PSI 1-6); higher = more stable
Conditions: c terminus: a fixed tail appended
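Further: lentivirally expressed fusions sorted by FACS into six bins by GFP to DsRed ratio, PSI derived from sequencing read proportions per bin multiplied by bin number.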

Protein stability index of substitutions, site by site:
S7: F 1.41; N 2.08; A 2.53; T 2.82; P 2.23; M 2.18; L 1.52; H 2.36; E 2.12; Q 3.49; R 1.99; I 2.13; C 1.94; K 2.36; G 3.02
W6: N 2.18; I 2.48; T 3.16; A 1.69; C 1.88; V 1.92; Q 2.41; Y 2.13; M 2.15; L 2.22; S 2.14; P 2.21; D 2.61; E 2.97; F 2.3; R 2.13; G 2.14; K 1.97; H 1.85
D5: W 1.63; R 3.09; P 1.87; M 2.57; A 2.93; H 1.68; S 2.5; E 2.8; I 2.46; L 2.88; N 2.16; C 2.2; T 2.53; F 1.88; Q 2.44; V 2.56; K 3.2; Y 2.15; G 1.99
P1: M 2.12; A 1.31; D 2.83; C 2.3; F 1.7; H 1.99; S 2.02; T 2.25; I 2.24; V 2.2; Y 2.22; Q 2.38; R 2.86; W 2.86; L 1.73; K 2.42; G 1.94; N 2.5; E 2.13
V3: I 2.05; G 2.13; Q 2.52; T 2.24; F 2.24; D 2.39; N 2.06; S 2.44; Y 2.69; W 1.7; E 3.61; L 2.88; H 1.94; P 2.46; C 2.41; M 1.84; K 1.79; A 1.71
R4: N 2.63; E 2.43; Q 2.53; M 2.69; F 1.6; K 2.29; H 2.25; V 2.09; S 2.61; T 2.13; W 2.58; L 1.93; A 3.02; C 1.99; G 2.37; D 2.84; I 2.32; Y 1.61; P 2.47
Q2: N 2.41; P 3.51; A 2.59; C 2.67; D 2.04; G 2.29; I 2.92; F 2.55; S 2.42; K 2.08; R 1.77; V 3.24; H 2.17; M 3.56; E 2.63; W 1.82; T 2.31; L 3.67; Y 2.34

Variants of: B2
Experiment: as above
Conditions: c terminus: a fixed tail appended

Protein stability index: each site, then its substitutions
W22: S 5.35; L 5.22; N 5.52; K 5; M 4.88; P 4.64; C 5.21
E7: K 4.36; W 4.25; A 4.36; P 4.75; N 4.25; C 4.15; G 3.95; V 4.57; Y 3.81; D 4.04; M 3.38
Q1: V 4.81; K 4.29; W 4.13; P 5.21; F 4.28; I 4.4; E 4.86; N 4.5; C 3.83; L 4.35; S 4.66
R9: W 4.47; M 5.37; H 5.33; V 4.85; F 4.98; C 4.84; G 4.85; D 4.97; P 4.92; T 4.51

Source: the supplement of paper PMC10567573
